Laboratory results reported in publication PMC9384988, “The TPR domain of PgaA is a multifunctional scaffold that binds PNAG and modulates PgaB-dependent polymer processing” (PLoS Pathogens, 2022).

Assays:
His-PgaA (PgaA-32-807) [1] = molecular target: T1, His-PgaA (PgaA-32-807) (E. coli K-12, UniProt P69434 32-807)
T1 construct: also called His-PgaA-32-807; full-length PgaA; source: E. coli BL21: co-expressed with PgaB, in DDM extract of the lysate pellet (pull-down); expressed alone or with PgaB and purified (NiNTA, gel filtration, DDM); not shown: His6, N-terminal, kept
T1 sequence (looked up): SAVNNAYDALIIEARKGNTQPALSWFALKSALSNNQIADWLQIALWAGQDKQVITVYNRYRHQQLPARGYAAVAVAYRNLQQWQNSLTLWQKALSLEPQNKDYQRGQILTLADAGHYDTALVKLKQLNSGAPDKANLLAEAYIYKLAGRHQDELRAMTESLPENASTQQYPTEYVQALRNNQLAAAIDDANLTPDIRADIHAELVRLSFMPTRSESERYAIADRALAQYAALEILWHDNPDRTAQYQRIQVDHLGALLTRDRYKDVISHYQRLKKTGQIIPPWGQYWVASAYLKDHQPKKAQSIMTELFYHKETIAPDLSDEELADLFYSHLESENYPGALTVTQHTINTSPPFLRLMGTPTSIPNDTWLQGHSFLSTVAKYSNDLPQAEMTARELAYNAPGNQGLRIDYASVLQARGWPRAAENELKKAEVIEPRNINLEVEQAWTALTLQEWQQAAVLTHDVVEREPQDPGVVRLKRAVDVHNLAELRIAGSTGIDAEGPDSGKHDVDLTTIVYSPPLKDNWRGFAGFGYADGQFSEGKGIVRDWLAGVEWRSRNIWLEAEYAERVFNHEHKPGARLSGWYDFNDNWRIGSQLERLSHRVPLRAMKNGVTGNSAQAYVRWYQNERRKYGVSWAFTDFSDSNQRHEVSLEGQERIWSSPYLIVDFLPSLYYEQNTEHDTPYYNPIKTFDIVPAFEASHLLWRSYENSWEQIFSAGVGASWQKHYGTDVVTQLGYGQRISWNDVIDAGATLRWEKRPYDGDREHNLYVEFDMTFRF

PgaA-220-367 = molecular target: T2, PgaA-220-367 (Escherichia coli, UniProt P69434); assay: Tryptophan quenching, wild-type PgaA-220-367; assay type: binding, E. coli; conditions: substrate concentration 4.5 mM
T2 construct: His6 (thrombin cleavable, pET28) (N); made in house; host or cells: E. coli BL21 CodonPlus (DE3)
T2 sequence (P69434 220-367): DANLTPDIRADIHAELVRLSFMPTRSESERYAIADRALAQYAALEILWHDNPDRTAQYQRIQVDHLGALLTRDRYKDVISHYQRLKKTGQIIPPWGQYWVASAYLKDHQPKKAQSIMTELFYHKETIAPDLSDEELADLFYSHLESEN
Procedure: Fluorescence measurements were carried out at 20°C in a quartz cuvette (type no. 115F-QS; Hellma Analytics) using a PTI QuantaMaster 80 steady-state fluorometer (Photon Technology International), with a 4-nm bandwidth for both excitation and emission and a speed of 2 nm/s. Fluorescence spectra were collected between 300 nm and 400 nm with an excitation wavelength of 280 nm and a peak emission wavelength of 334 nm. All samples were prepared in triplicates 10 minutes ahead of the collection in a solution containing 1 μM protein, 20 mM Tris buffer pH 8.0, 150 mM sodium chloride and 1 mM concentrations of dPNAG oligomers. Data measured for each sample was corrected for ligand fluorescence and inner filter effect. […] To obtain an approximate binding affinity the dPNAG oligomer concentration was varied between 0–10 mM.

His-PgaA (PgaA-32-807) [2] = molecular target: T1, His-PgaA (PgaA-32-807); assay: co-purification (NiNTA, gel filtration) with SDS-PAGE; His-PgaA and PgaB constructs co-expressed in BL21, extracted with 1% DDM, purified by NiNTA and gel filtration (20 mM Tris pH 8, 150 mM NaCl, 0.1% DDM); Coomassie gel of the purified complexes; conditions: partners not purified
[3] = test system: Staphylococcus epidermidis strain SE801 biofilms; assay: Crystal violet-based biofilm disruption assay (glycoside hydrolase activity); assay type: cell-based; conditions: S. epidermidis SE801 biofilm, 2 h, lower EC50 = higher glycoside hydrolase activity
Procedure: To determine whether the modulation of enzyme activity might be a common theme for the TPR domain across synthase-dependent systems, we assayed the deacetylase and glycoside hydrolase activities of PgaB in the presence and absence of PgaA. As we used co-expression to obtain the complexes, a SDS PAGE gel of the purified solutions of PgaA, PgaB and PgaA/B complexes was analyzed to ensure that equal quantities of the protein/protein complex were used (Fig 2A). Consistent with previous published studies, PgaA and PgaB appear to form a 1:1 complex. The deacetylase activity was assessed using a fluorescamine-based assay with fully acetylated PNAG hexamers as the substrate. As fluorescamine detects the presence of primary amines, which are generated during the deacetylation of the PNAG oligosaccharide, this assay provides a direct readout of the deacetylation activity of PgaB. […] After a further 2 h, the reaction was quenched, plates washes and the amount of adherent biofilm remaining quantified using crystal violet staining. […]
Cultures of S. epidermidis clinical isolate SE801 were grown overnight at 37°C with shaking at 200 rpm in LB broth without antibiotics. […] The remaining dye was solubilized with 100 μl of 95% (v/v) ethanol for 10 min with rotation, after which time the absorbance was measured at 595 nm.

[4] = Fluorescamine de-acetylation assay; assay type: biochemical; conditions: 30 μM enzyme and 30 mM PNAG hexamer; fluorescamine readout
Procedure: To determine whether the modulation of enzyme activity might be a common theme for the TPR domain across synthase-dependent systems, we assayed the deacetylase and glycoside hydrolase activities of PgaB in the presence and absence of PgaA. As we used co-expression to obtain the complexes, a SDS PAGE gel of the purified solutions of PgaA, PgaB and PgaA/B complexes was analyzed to ensure that equal quantities of the protein/protein complex were used (Fig 2A). Consistent with previous published studies, PgaA and PgaB appear to form a 1:1 complex. The deacetylase activity was assessed using a fluorescamine-based assay with fully acetylated PNAG hexamers as the substrate. As fluorescamine detects the presence of primary amines, which are generated during the deacetylation of the PNAG oligosaccharide, this assay provides a direct readout of the deacetylation activity of PgaB. To assess the glycoside hydrolase activity, we used a biofilm disruption assay, which has been used previously to characterize PgaB’s glycosidase activity. In this assay, biofilms of Staphylococcus epidermidis strain SE801 were grown in 96 well plates for 24 h, at which point PgaB was added. After a further 2 h, the reaction was quenched, plates washes and the amount of adherent biofilm remaining quantified using crystal violet staining. […]

Work on “PgaB-22-672 (soluble form of PgaB) (from UniProt P75906 22-672) (enzyme)” yielded a fluorescamine-based deacetylation assay with PNAG hexamer, concentration of GlcN produced (PgaA+B, individually purified and mixed) (His-PgaA (PgaA-32-807) [1]) of 1290 µM.

For chitin, the “quenching of the signal at 334nm” value (PgaA-220-367) was 9%.

B1: PgaB (PgaB-1-672) (enzyme, E. coli, UniProt P75906 21-672, looked up)
chain: CISQSRTSFIPPQDRESLLAEQPWPHNGFVAISWHNVEDEAADQRFMSVRTSALREQFAWLRENGYQPVSIAQIREAHRGGKPLPEKAVVLTFDDGYQSFYTRVFPILQAFQWPAVWAPVGSWVDTPADKQVKFGDELVDREYFATWQQVREVARSRLVELASHTWNSHYGIQANATGSLLPVYVNRAYFTDHARYETAAEYRERIRLDAVKMTEYLRTKVEVNPHVFVWPYGEANGIAIEELKKLGYDMFFTLESGLANASQLDSIPRVLIANNPSLKEFAQQIITVQEKSPQRIMHIDLDYVYDENLQQMDRNIDVLIQRVKDMQISTVYLQAFADPDGDGLVKEVWFPNRLLPMKADIFSRVAWQLRTRSGVNIYAWMPVLSWDLDPTLTRVKYLPTGEKKAQIHPEQYHRLSPFDDRVRAQVGMLYEDLAGHAAFDGILFHDDALLSDYEDASAPAITAYQQAGFSGSLSEIRQNPEQFKQWARFKSRALTDFTLELSARVKAIRGPHIKTARNIFALPVIQPESEAWFAQNYADFLKSYDWTAIMAMPYLEGVAEKSADQWLIQLTNQIKNIPQAKDKSILELQAQNWQKNGQHQAISSQQLAHWMSLLQLNGVKNYGYYPDNFLHNQPEIDLIRPEFSTAWYPKND
modifications: C21 lipidated (residues 1-20 are a signal sequence that is cleaved during periplasmic targeting)
notes: signal peptide in the construct; Untagged; also called full-length PgaB; untagged PgaB; source: E. coli BL21: co-expressed with His-PgaA constructs, in DDM extract or co-purified; also separately expressed, cell pellet mixed with the PgaA pellet before lysis
With B1 the “stoichiometry N” value (His-PgaA (PgaA-32-807) [2]) was 1.

B2: PgaB: soluble E. coli PgaB residues 22–672, de-N-acetylase and glycoside hydrolase (protein)
chain: CISQSRTSFIPPQDRESLLAEQPWPHNGFVAISWHNVEDEAADQRFMSVRTSALREQFAWLRENGYQPVSIAQIREAHRGGKPLPEKAVVLTFDDGYQSFYTRVFPILQAFQWPAVWAPVGSWVDTPADKQVKFGDELVDREYFATWQQVREVARSRLVELASHTWNSHYGIQANATGSLLPVYVNRAYFTDHARYETAAEYRERIRLDAVKMTEYLRTKVEVNPHVFVWPYGEANGIAIEELKKLGYDMFFTLESGLANASQLDSIPRVLIANNPSLKEFAQQIITVQEKSPQRIMHIDLDYVYDENLQQMDRNIDVLIQRVKDMQISTVYLQAFADPDGDGLVKEVWFPNRLLPMKADIFSRVAWQLRTRSGVNIYAWMPVLSWDLDPTLTRVKYLPTGEKKAQIHPEQYHRLSPFDDRVRAQVGMLYEDLAGHAAFDGILFHDDALLSDYEDASAPAITAYQQAGFSGSLSEIRQNPEQFKQWARFKSRALTDFTLELSARVKAIRGPHIKTARNIFALPVIQPESEAWFAQNYADFLKSYDWTAIMAMPYLEGVAEKSADQWLIQLTNQIKNIPQAKDKSILELQAQNWQKNGQHQAISSQQLAHWMSLLQLNGVKNYGYYPDNFLHNQPEIDLIRPEFSTAWYPKND
modifications: C21 lipidated (residues 1-20 are a signal sequence that is cleaved during periplasmic targeting)
notes: soluble E. coli PgaB residues 22–672, de-N-acetylase and glycoside hydrolase
With B2 the EC50 [3] was 302 ± 82.3 nM and the “concentration of GlcN produced” value [4] was 988.6 ± 104.7 µM.
